Data from patent US20200040101A1.
Several values for one entry are separate records, joined by “and”; a condition that tells them apart may be missing. Equal values may be shown once.

Legend:
[1] = target: human Claudin 18.2 (CLDN18.2) expressed on cells (human) (UniProt P56856); assay: cell-based or functional assay
[2] = target: T1, CLDN 7 expressed on HEK 293 cells (UniProt O95471); assay: FACS, transfected HEK 293 cells
T1 sequence (looked up): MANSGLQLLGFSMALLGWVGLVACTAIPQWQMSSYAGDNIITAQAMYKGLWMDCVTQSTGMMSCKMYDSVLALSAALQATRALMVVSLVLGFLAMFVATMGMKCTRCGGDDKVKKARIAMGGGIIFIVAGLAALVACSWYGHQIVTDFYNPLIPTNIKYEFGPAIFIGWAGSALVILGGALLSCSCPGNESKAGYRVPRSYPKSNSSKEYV

Claudin-10 = target: T2, Claudin-10; assay: FACS, transfected HEK 293 cells
T2 sequence (P78369 1-228, species assumed, looked up): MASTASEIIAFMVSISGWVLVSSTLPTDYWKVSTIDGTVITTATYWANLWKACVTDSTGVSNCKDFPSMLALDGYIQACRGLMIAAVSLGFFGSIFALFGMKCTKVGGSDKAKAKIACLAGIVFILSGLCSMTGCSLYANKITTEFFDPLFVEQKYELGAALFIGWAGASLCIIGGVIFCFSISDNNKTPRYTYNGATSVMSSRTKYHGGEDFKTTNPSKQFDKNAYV

Claudin-11 = target: T3, Claudin-11; assay: FACS, transfected HEK 293 cells
T3 sequence (O75508 whole entry, species assumed, looked up): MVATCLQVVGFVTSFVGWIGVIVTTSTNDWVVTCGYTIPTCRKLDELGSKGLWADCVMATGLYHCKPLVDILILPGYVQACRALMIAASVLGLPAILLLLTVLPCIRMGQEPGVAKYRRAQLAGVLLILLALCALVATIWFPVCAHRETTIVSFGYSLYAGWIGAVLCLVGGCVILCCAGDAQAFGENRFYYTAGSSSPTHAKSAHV

Claudin-12 = assay: FACS, transfected HEK 293 cells
Claudin-14 = assay: FACS, transfected HEK 293 cells
Claudin-16 = target: T4, Claudin-16; assay: FACS, transfected HEK 293 cells
T4 sequence (Q9Y5I7 1-235, species assumed, looked up): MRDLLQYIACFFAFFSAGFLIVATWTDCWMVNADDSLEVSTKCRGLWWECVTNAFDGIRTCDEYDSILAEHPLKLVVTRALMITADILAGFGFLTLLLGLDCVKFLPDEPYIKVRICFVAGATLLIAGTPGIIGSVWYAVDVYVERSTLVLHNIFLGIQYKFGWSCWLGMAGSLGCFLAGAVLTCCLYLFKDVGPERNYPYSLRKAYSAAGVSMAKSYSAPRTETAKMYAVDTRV

Claudin-17 = target: T5, Claudin-17; assay: FACS, transfected HEK 293 cells
T5 sequence (P56750 whole entry, species assumed, looked up): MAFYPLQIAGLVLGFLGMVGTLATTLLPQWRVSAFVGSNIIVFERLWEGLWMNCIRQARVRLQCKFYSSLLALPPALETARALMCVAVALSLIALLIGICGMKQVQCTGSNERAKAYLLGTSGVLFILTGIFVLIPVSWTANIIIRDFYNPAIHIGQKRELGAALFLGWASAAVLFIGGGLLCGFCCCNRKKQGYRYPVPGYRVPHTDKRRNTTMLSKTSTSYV

Claudin-19 = target: T6, Claudin-19; assay: FACS, transfected HEK 293 cells
T6 sequence (Q8N6F1 whole entry, species assumed, looked up): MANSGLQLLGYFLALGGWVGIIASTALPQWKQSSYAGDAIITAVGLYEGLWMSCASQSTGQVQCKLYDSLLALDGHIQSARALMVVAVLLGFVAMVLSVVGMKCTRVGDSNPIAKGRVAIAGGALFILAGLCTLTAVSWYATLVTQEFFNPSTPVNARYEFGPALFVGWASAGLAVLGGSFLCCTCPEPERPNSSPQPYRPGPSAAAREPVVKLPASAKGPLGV

Claudin-1 = assay: FACS, transfected HEK 293 cells
Claudin-22 = assay: FACS, transfected HEK 293 cells
Claudin-23 = target: T7, Claudin-23; assay: FACS, transfected HEK 293 cells
T7 sequence (Q96B33 1-292, species assumed, looked up): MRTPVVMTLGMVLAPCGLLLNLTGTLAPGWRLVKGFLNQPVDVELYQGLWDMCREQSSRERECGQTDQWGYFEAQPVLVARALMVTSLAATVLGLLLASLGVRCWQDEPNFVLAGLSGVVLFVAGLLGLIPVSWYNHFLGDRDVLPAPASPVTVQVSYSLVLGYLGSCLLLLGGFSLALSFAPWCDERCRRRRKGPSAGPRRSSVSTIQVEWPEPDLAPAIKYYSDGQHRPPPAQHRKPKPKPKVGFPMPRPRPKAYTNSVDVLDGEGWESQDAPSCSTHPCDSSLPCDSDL

Claudin-2 = target: T8, Claudin-2; assay: FACS, transfected HEK 293 cells
T8 sequence (P57739 whole entry, species assumed, looked up): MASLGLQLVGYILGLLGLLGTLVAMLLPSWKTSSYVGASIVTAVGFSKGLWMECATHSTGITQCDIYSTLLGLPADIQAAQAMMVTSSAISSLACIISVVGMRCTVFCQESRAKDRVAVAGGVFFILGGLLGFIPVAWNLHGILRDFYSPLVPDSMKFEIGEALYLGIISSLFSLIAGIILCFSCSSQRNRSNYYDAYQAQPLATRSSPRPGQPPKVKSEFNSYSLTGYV

Claudin-34 = assay: FACS, transfected HEK 293 cells
Claudin-3 = assay: FACS, transfected HEK 293 cells
Claudin-4 = assay: FACS, transfected HEK 293 cells
Claudin-5 = target: T9, Claudin-5; assay: FACS, transfected HEK 293 cells
T9 sequence (O00501 whole entry, species assumed, looked up): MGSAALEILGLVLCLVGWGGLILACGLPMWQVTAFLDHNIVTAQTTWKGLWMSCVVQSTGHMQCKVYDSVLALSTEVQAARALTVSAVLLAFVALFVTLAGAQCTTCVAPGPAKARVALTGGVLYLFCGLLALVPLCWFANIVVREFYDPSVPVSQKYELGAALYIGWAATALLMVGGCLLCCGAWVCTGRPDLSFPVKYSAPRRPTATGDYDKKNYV

Claudin-8 = assay: FACS, transfected HEK 293 cells
Claudin-9 = assay: FACS, transfected HEK 293 cells
[3] = target: human Claudin 18.2 (CLDN18.2) expressed on cells (human) (UniProt P56856); assay: FACS, purified antibody on HEK 293 cells expressing CLDN18.2
[4] = target: human Claudin 18.2 (CLDN18.2) expressed on cells (human) (UniProt P56856); assay: FACS, transfected HEK 293 cells, first 18.2 column
[5] = target: human Claudin 18.2 (CLDN18.2) expressed on cells (human) (UniProt P56856); assay: FACS, transfected HEK 293 cells, second 18.2 column
[6] = target: purified CLDN18.2 protein (CLDN18.2 ligand) (human) (UniProt P56856); assay: Octet (ForteBio), antibody on anti-human IgG capture sensor, CLDN18.2 ligand in solution, 1:1 fit
[7] = target: purified CLDN18.2 protein (CLDN18.2 ligand) (human) (UniProt P56856); assay: BLI (ForteBio Octet RED 96), antibody on anti-human IgG capture sensor, CLDN18.2 ligand in solution, 1:1 fit
[8] = target: purified CLDN18.2 protein (CLDN18.2 ligand) (human) (UniProt P56856); assay: Octet (ForteBio), antibody on anti-human IgG capture sensor, CLDN18.2 ligand in solution, 1:1 fit; kdis(1/s)
[9] = target: CLDN18.1 expressed on HEK 293 cells (UniProt P56856); assay: FACS, hybridoma supernatant on HEK 293 cells expressing CLDN 18.1
[10] = target: CLDN18.1 expressed on HEK 293 cells (UniProt P56856); assay: FACS, transfected HEK293 cells, 10 ug/ml; HEK293 alone 14.2
[11] = target: human Claudin 18.2 (CLDN18.2) expressed on cells (human) (UniProt P56856); assay: as above
mouse-18.1 (mouse) = mouse-18.1 (mouse) (UniProt P56857); assay: as above
mouse-18.1 (mouse), sequence (P56857 whole entry): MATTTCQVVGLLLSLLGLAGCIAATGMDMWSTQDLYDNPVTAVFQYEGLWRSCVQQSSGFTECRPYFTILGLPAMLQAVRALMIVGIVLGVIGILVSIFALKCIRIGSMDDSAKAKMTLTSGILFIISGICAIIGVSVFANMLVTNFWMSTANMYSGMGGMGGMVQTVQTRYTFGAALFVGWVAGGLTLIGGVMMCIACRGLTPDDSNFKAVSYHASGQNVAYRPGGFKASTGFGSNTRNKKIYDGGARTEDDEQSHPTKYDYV

mouse-18.2 (mouse) = mouse-18.2 (mouse) (UniProt P56857); assay: as above
mouse-18.2 (mouse), sequence (P56857 other isoform, or with tags, fused parts or gaps): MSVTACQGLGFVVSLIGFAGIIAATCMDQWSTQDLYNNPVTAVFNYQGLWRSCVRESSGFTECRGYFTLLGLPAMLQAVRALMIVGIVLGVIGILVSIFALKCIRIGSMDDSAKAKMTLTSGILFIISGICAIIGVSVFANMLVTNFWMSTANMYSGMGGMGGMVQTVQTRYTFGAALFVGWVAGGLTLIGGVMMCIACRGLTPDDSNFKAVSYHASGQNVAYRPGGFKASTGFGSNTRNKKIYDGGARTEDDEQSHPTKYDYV

[12] = target: human Claudin 18.2 (CLDN18.2) expressed on cells (human) (UniProt P56856); assay: FACS, purified chimeric antibody on HEK 293 cells expressing CLDN18.2

B1: Internal Reference (reference antibody with the heavy and light chain sequences of Zolbetuximab) (antibody, INN chains, looked up, V domains shown)
VH: QVQLQQPGAELVRPGASVKLSCKASGYTFTSYWINWVKQRPGQGLEWIGNIYPSDSYTNYNQKFKDKATLTVDKSSSTAYMQLSSPTSEDSAVYYCTRSWRGNSFDYWGQGTTLTVSS
VL: DIVMTQSPSSLTVTAGEKVTMSCKSSQSLLNSGNQKNYLTWYQQKPGQPPKLLIYWASTRESGVPDRFTGSGSGTDFTLTISSVQAEDLAVYYCQNDYSYPFTFGSGTKLEIKR
- ADCC NUGC4 Cells [1]: 610 ng/mL
- ADCC with 293 cells expressing Claudin 18.2 [1]: 0.014 nM and 0.006 nM
- MFI [2]: 21.4
- MFI (Claudin-10): 20.8
- MFI (Claudin-11): 19.3
- MFI (Claudin-12): 21.4
- MFI (Claudin-14): 21.2
- MFI (Claudin-16): 19.5
- MFI (Claudin-17): 19.6
- MFI (Claudin-19): 18.1
- MFI (Claudin-1): 20.9
- MFI (Claudin-22): 19.9
- MFI (Claudin-23): 19.8
- MFI (Claudin-2): 19.7
- MFI (Claudin-34): 21.1
- MFI (Claudin-3): 20.8
- MFI (Claudin-4): 18.7
- MFI (Claudin-5): 18.4
- MFI (Claudin-8): 20.4
- MFI (Claudin-9): 20.4
- EC50 [3]: 0.00117 µM
- FACS Signal MFI (×1000) [3]: 25000 MFI
- MFI [4]: 4040
- MFI [5]: 3880
- Kd [6]: 0.0869 µM
- kon [6]: 1600 M⁻¹ s⁻¹
- Kd [7]: 0.089 µM and 0.071 µM
- koff [8]: 0.000139 s⁻¹

B2: 11E12 (mouse hybridoma subclone antibody) (antibody, V domains shown)
VH: QVQLQQSGAELARPGASVKLSCKASGYTFTSYVINWVKQKTGQGLEWIGEIHPRGGNTYYSEKFRGRATLTADKSSSTAYMEFRSLTSEDSAVYFCAILRRGNAMDYWDQGTAVTVSS
VL: DIVMTQSPSSLPVTAGEMVTMSCKSSQSLLNSGNQRNYLTWYQQKPGQPPKLLIYWASTRESGVPDRFTGSGSGTDFTLTISSVQAEDLAVYYCQNSYNYPYTFGGGTKLERK
- MFI [9]: 30

B3: Clone # 46 (purified chimeric rabbit/human antibody) (antibody, V domains shown)
VH: QQQLVESGGGLVKPGGTLTLTCTVSGFYFNRGYWICWVRQAPGKGLEWIGCIDTGSGVPYYANWAKGRFTISKTSSTAVTLQMTSLTAADTATYFCARNSDSIYFNLWGPGTLVTVSS
VL: DIVMTQTPASVSEPVGGTVTIKCQASQSIGGYLSWYQQKPGQPPKLLIYKASTLASGVPSRFKGSGSGTDFTLTISDLECADAATYYCQNYAGVSIYGAVFGGGTKVVVVR
- ADCC NUGC4 Cells [1]: 70 ng/mL
- ADCC with 293 cells expressing Claudin 18.2 [1]: 0.015 nM
- MFI [10]: 19.4
- MFI [11]: 553
- MFI (mouse-18.1 (mouse)): 18.9
- MFI (mouse-18.2 (mouse)): 3490
- EC50 [12]: 0.000619 µM
- FACS Signal MFI (×1000) [12]: 55000 MFI
- Kd [6]: 0.0125 µM
- kon [6]: 2320 M⁻¹ s⁻¹
- Kd [7]: 0.012 µM
- koff [8]: 2.9e-05 s⁻¹
